These results are taken from article PMC4238058.

Assay [1] has as its target triply phosphorylated His8-tagged Nephrin cytoplasmic tail (amino acids 1174-1223, Y1183F, Y1210F; pTyr1176, pTyr1193, pTyr1217) (human).
In assay [2] the target is triply phosphorylated TIR3Y (His8-tagged human Nephrin tail with its pTyr sites replaced by the pTyr motif of EPEC Tir) (EPEC | human).
The target of assay [3] is (SH3)3: three repeats of the second Nck SH3 domain, plus the Nck SH2 domain (human).

For “(SH3)3: three repeats of the second Nck SH3 domain, plus the Nck SH2 domain (designed binder)”, the clustering concentration of (SH3)3 (SH3 module concentration) on bilayers with p-Nephrin and 500 nM N-WASP in assay [1] is 200 nM. This substance gave a clustering concentration of (SH3)3 (SH3 module concentration) on bilayers with p-TIR at 2000 molecules/um^2 and 500 nM N-WASP in assay [2] of 100 nM.

For the substance “TIR-1pY: N-terminal rhodamine labeled single pTyr motif from EPEC Tir protein (peptide)”, the equilibrium fractional intensity of p-Nephrin clusters (1 uM (SH3)3, 500 nM N-WASP) against peptide concentration, 100 nM to 100 uM; the pair that is blocked: (SH3)3 with p-Nephrin in assay [3] is over 10 µM.
